Source: paper PMC5291247, “The histone chaperone Vps75 forms multiple oligomeric assemblies capable of mediating exchange between histone H3–H4 tetramers and Asf1–H3–H4 complexes” (Nucleic Acids Research, 2016)

Target: the molecule itself
Assay: crystal structure; Vps75 (1-225) crystallised from the VAH preparation; sitting drop, 0.1 M sodium cacodylate pH 6.5, 25% PEG 4000; four monomers in the asymmetric unit, two tetrameric assemblies in the lattice

B1: Vps75 (1–225) (domain or fragment, UniProt P53853 1-225, looked up)
chain: MMSDQENENEHAKAFLGLAKCEEEVDAIEREVELYRLNKMKPVYEKRDAYIDEIAEFWKIVLSQHVSFANYIRASDFKYIDTIDKIKVEWLALESEMYDTRDFSITFHFHGIEGDFKEQQVTKVFQIKKGKDDQEDGILTSEPVPIEWPQSYDSINPDLIKDKRSPEGKKKYRQGMKTIFGWFRWTGLKPGKEFPHGDSLASLFSEEIYPFCVKYYAEAQRDLED
notes: Vps75, yeast, residues 1-225 (C-terminally truncated), as crystallised; Crystallised from the Vps75-Asf1-H3-H4 preparation; only Vps75 is in the crystal; also called Vps75 tetramer; Vps75 (1-225) dimer
With B1 the “stoichiometry N” value was 4.
